Laboratory results: the supplement of paper PMC10567573
± gives the standard deviation.

Experiment: protein stability index of a GFP-peptide fusion (GPS, HEK-293T) (PSI 1-6); higher = more stable
[1] = treatment: DMSO, c terminus: a fixed tail appended
[2] = treatment: MLN4924 1 uM, 8 h, c terminus: a fixed tail appended
[3] = treatment: DMSO, c terminus: native
[4] = treatment: MLN4924 1 uM, 8 h, c terminus: native
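Further: 24-mer peptide tiles fused after GFP, lentivirally expressed, FACS-sorted into six equal bins by GFP/DsRed ratio, decoded by Illumina sequencing, PSI is the read-weighted mean bin number.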

Row | Sequence | protein stability index [1] | protein stability index [2] | protein stability index [3] | protein stability index [4]
1 | LSLGALVALCWQLGLLFERHWHRP [SCNN1D] | 3.09 ± 0.24 | 3.16 ± 0.19 | – | –
2 | QNVDVNVHPTKHEVHFLHEESILE [MLH1] | 4.72 ± 0.19 | 4.75 ± 0.056 | – | –
3 | GGCGGPRAWSQCGGGGLRAWSQRS [CPOX] | 2.73 ± 0.74 | 2.56 ± 0.46 | – | –
4 | LYGGMNYRRLGGGVGVIKMTHCES [KLHL20] | 2.3 ± 0.25 | 2.85 ± 0.66 | – | –
5 | KDRETSKVIYDFIEKTGGVEAVKN [WASL] | 3.28 ± 0.068 | 3.37 ± 0.078 | – | –
6 | FPTDAPYPTTLGKDRECQSQSLAL [ZNF8] | 4.07 ± 0.15 | 4.05 ± 0.31 | – | –
7 | LLQLSDACRFQEDQEMARDLVERA [TCF25] | 3.64 ± 0.34 | 3.77 ± 0.52 | – | –
8 | KILLTKSENARLVLQIDNAKLAAD [KRT36] | 2.99 ± 0.15 | 3.08 ± 0.51 | – | –
9 | VQAPSYGARPVSSAASVYAGAGGS [KRT18] | 3.91 ± 0.081 | 3.82 ± 0.69 | – | –
10 | QNRRAKLKRSHRESQFLMAKKNFN [HESX1] | 3.43 ± 0.24 | 3.48 ± 0.43 | – | –
11 | WGVVSHSFPATLETQEQDVDLVQK [MMP1] | 4.58 ± 0.34 | 4.73 ± 0.43 | – | –
12 | WENRHEGVFKFLRSEAVAQLWGQK [ELF3] | 2.43 ± 0.32 | 2.67 ± 0.35 | – | –
13 | NVHFKEETVKLFICELVMALDYLQ [STK32A] | 2.81 ± 0.7 | 2.85 ± 0.62 | – | –
14 | VVQTLYPFSSVTEEELNFEKGETM [NCK2] | 3.66 ± 0.17 | 3.77 ± 0.29 | – | –
15 | CTLGICGQGLKSYMTKPSKSLLPH [RTP4] | 2.2 ± 0.3 | 2.21 ± 0.35 | – | –
16 | MRQFLRGLDFLHANCIVHRDLKPE [CDK4] | 2.21 ± 0.22 | 2.23 ± 0.13 | – | –
17 | LQDQEKAWGFPENATAPRSPSHSP [ELOA2] | 5.38 ± 0.26 | 5.4 ± 0.26 | – | –
18 | AEVSWEPGRREGCDICAGKAGCPI [RPS21] | 3.29 ± 0.31 | 3.89 ± 0.26 | – | –
19 | CTACGSVLEDNIIVSEVQFVESSG [BRF1] | 3.42 ± 0.57 | 3.74 ± 0.35 | – | –
20 | MDSDMDYERPNVETIKCVVVGDNA [RHOBTB2] | 4.74 ± 0.21 | 4.87 ± 0.22 | – | –
21 | TLSFIVDGQYLGVAFRGLKGKKLY [SPSB4] | 2.16 ± 0.41 | 2.31 ± 0.31 | – | –
22 | EAFKNILTEIYRIVSQKQIADRAA [RAB11B] | 2.81 ± 0.4 | 2.81 ± 0.49 | – | –
23 | PDCLRACQEQIEALLESSLRQAQQ [CCND1] | 3.23 ± 0.34 | 3.59 ± 0.38 | – | –

Row | Sequence | protein stability index [1] | protein stability index [2] | protein stability index [3] | protein stability index [4]
24 | AEDGGAYLATAKVLITVEDVNDNS [PCDHGA10] | 4.4 ± 0.21 | 4.36 ± 0.29 | – | –
25 | PVTQIGFEAPPLQGQAAAPASGSG [TRIM55] | 5.14 ± 0.42 | 5.22 ± 0.14 | – | –
26 | HDIIKHPMDLSTVKRKMDGREYPD [BRD3] | 5.02 ± 0.19 | 5.1 ± 0.11 | – | –
27 | EGDVCGVEPPGPGDTVVQGDLQET [PBXIP1] | 5.57 ± 0.28 | 5.64 ± 0.19 | – | –
28 | SIMEMQAMEVNTSASEILYSAPPG [NFE2L1] | 3.81 ± 0.33 | 3.94 ± 0.28 | – | –
29 | ESLSAIEAELEKVAHQLQALRRG [CHGA] | – | – | 3.19 ± 0.42 | 3 ± 0.72
30 | INRWRFLLQCLEDLDANLRKLNSR [CRY1] | 2.06 ± 0.16 | 2.45 ± 0.15 | – | –
31 | NAKLASDDFRSKYQTEQSLRLLVE [KRT34] | 3.16 ± 0.34 | 3.04 ± 0.49 | – | –
32 | ENRLSVFFSVIFMTVGILSNSLAI [PTGFR] | 3.14 ± 0.25 | 3.36 ± 0.17 | – | –
33 | ECGHNFCKACITRWWEDLERDFPC [TRIM39] | 2.97 ± 0.49 | 3.01 ± 0.7 | – | –
34 | HCNLFVYSSSKGSLRLCDMRAAAL [PPP2R2C] | 2.6 ± 0.69 | 2.63 ± 0.35 | – | –
35 | YTKLPSSLQSTGKCLLYCNGVLEP [SLC25A39] | 2.64 ± 0.62 | 2.23 ± 0.35 | – | –
36 | EMEEGVKESLCAKEEKCQGKGDDS [KCNA4] | 5.62 ± 0.19 | 5.57 ± 0.33 | – | –
37 | QDDLTVVLNEEGICTQKCALNWTD [VPS39] | 4.04 ± 0.49 | 4 ± 0.67 | – | –
38 | IVEVLGIPPAAMLDQAPKARKYFE [DYRK1B] | 2.65 ± 0.42 | 2.93 ± 0.14 | – | –
39 | DVAEGYRKLSLKGHNDWVMDVAIS [WDR88] | 2.47 ± 0.31 | 2.69 ± 0.5 | – | –
40 | FGHHHQRAWIPSENIQDITVNIHR [ZMYND11] | 2.78 ± 0.37 | 2.69 ± 0.35 | – | –
41 | GAEPGTYLTGTINGDPESVASLHW [ADAMTS4] | 4.52 ± 0.87 | 3.67 ± 0.62 | – | –
42 | AEALGKLLQQNKSIQSLTLEWNSL [LRRC45] | 2.13 ± 0.16 | 2.25 ± 0.32 | – | –
43 | ILHPELTVDSMIPAYATTRIRSQI [GDAP1] | 2.52 ± 0.2 | 2.55 ± 0.17 | – | –
44 | VRDQISHCTVKLRQTTGLMEYCLE [TRIM9] | 2.59 ± 0.31 | 2.65 ± 0.36 | – | –
45 | CHSESGKSRLVQLPPVAVRSLQDL [PCMTD2] | 3.44 ± 0.33 | 3.28 ± 0.28 | – | –
46 | EIFRQRFRQFGYQDSPGPREAVSQ [ZNF24] | 2.7 ± 0.21 | 3.25 ± 0.082 | – | –

Row | Sequence | protein stability index [1] | protein stability index [2] | protein stability index [3] | protein stability index [4]
47 | PRSTVRQKVASNHSPFSSESRALS [TBX5] | 4.11 ± 0.25 | 4.15 ± 0.19 | – | –
48 | ELEGLIADPDEMRMQALLIRERIL [FEM1C] | 2.54 ± 0.48 | 2.65 ± 0.43 | – | –
49 | NVPSSSLPAQPNRKPGMSSTARRS [CHMP4C] | 4.9 ± 0.32 | 4.99 ± 0.13 | – | –
50 | GRNDLQQWIEVDARRLTRFTGVIT [CPXM2] | 2.43 ± 0.062 | 2.56 ± 0.12 | – | –
51 | GGIRGRAMALTSSMNWGINLLISL [SLC2A12] | 2.26 ± 0.7 | 2.54 ± 0.42 | – | –
52 | YHTGKTPFVCPECGQPCSQKSGLI [ZNF649] | 2.53 ± 0.59 | 3.24 ± 0.58 | – | –
53 | EDDSMSVIEPVVENSGILQGKLIK [EFHC1] | 4.89 ± 0.45 | 5.45 ± 0.25 | – | –
54 | VATWAIFVHRVGQPSIGGKLSPL [CTBP1-DT] | – | – | 3.12 ± 0.21 | 2.92 ± 0.47
55 | ITGLPLDNPSVLSGPMQAALQAAA [SMG5] | 3.08 ± 0.2 | 3.11 ± 0.082 | – | –
56 | MELLTNNLKFITDPFVCRLRHLSP [OR4A15] | 2.17 ± 0.22 | 2.58 ± 0.38 | – | –
57 | EGNALQGPILQKDYVQLENQWETP [ZNF449] | 4.86 ± 0.13 | 4.68 ± 0.23 | – | –
58 | NMCGYHSQDRYEFSSHITRGEHRF [IKZF1] | 2.47 ± 0.24 | 2.55 ± 0.65 | – | –
59 | TGFGQGQGYTINVPWNQVGMRDAD [HDAC6] | 2.89 ± 0.34 | 2.71 ± 0.28 | – | –
60 | PGNPSLHSRFVELSEAYRVLSREQ [DNAJC4] | 3.68 ± 0.44 | 3.81 ± 0.21 | – | –
61 | LRKGYLFMYNLVQFLGFSWIFVNL [HACD3] | 3.5 ± 0.29 | 3.22 ± 0.31 | – | –
62 | CYSEEITVCGDLHGQLDDLIFIFY [PPEF2] | 2.96 ± 0.43 | 2.65 ± 0.46 | – | –
63 | RRLLRRLSPSRGVAQCLRDLVAMQ [ZSWIM9] | 2.49 ± 0.36 | 2.89 ± 0.32 | – | –
64 | LQRASILDMRRDHEEQLQRLKLLK [FBF1] | 3.43 ± 0.48 | 3.72 ± 0.33 | – | –
65 | AVFMWPGKDSRWLPSLVLARLVFV [SLC29A1] | 3.25 ± 0.68 | 2.67 ± 0.34 | – | –
66 | QICGTHRQTKKMFCDMDKSLLCLL [TRIM43] | 2.77 ± 1 | 2.18 ± 0.36 | – | –
67 | EIPDQNIDVEALQVAFGSLYRDDV [GMCL1] | 4.58 ± 0.32 | 4.64 ± 0.094 | – | –
68 | ERLTKQEKRPLFLAPDFDRWLDES [HACD3] | 3.87 ± 0.21 | 3.93 ± 0.38 | – | –
69 | AFASTCLLSRFSVGIFHLMQIAVP [TMEM175] | 3.02 ± 0.29 | 3 ± 0.22 | – | –

Row | Sequence | protein stability index [1] | protein stability index [2] | protein stability index [3] | protein stability index [4]
70 | LMPGMPPGMPPPVPRPGIPPMTQA [ZNF207] | 4.01 ± 0.34 | 4.2 ± 0.31 | – | –
71 | QRTHTGEKPYGCIDCGKAFSQKSC [ZNF649] | 3.47 ± 0.27 | 3.87 ± 0.23 | – | –
72 | EPIPFWTFLSRILTGLNYEAPKYH [NSDHL] | 2.62 ± 0.23 | 2.76 ± 0.42 | – | –
73 | QLAAGRHGDDLKNTKNEISELTRL [KRT71] | 4.58 ± 0.32 | 4.52 ± 0.15 | – | –
74 | ISAHKPLLISSCDWMAAMFGGPFV [RHOBTB2] | 2.51 ± 0.57 | 2.44 ± 0.2 | – | –
75 | IRKERKRLKLMQQNPAGELEGFQA [ATE1] | 3.87 ± 0.65 | 3.76 ± 0.32 | – | –
76 | CSQHWGGMASFRFPETTFISVTAY [TBX6] | 3.18 ± 0.6 | 2.85 ± 0.47 | – | –
77 | SSHFLEQTLDKKLMSDLRRKRTAH [INTS4] | 4.06 ± 0.23 | 4.14 ± 0.17 | – | –
78 | CKKLHIPLKAQNDLDISRIKRGNT [P2RY14] | 3.44 ± 0.33 | 3.65 ± 0.14 | – | –
79 | KLLPHQPRIVEMKKGSNGYGFYLR [PDZK1] | 2.37 ± 0.12 | 2.47 ± 0.6 | – | –
80 | MGNSHCVPQAPRRLRASFSRKPSL [PLEKHN1] | 3.66 ± 0.096 | 3.69 ± 0.11 | – | –
81 | SASVIFEGVDIKNGTEDLPYAMKP [NSDHL] | 4.39 ± 0.12 | 4.28 ± 0.26 | – | –
82 | EDEEEEEGENYQKGERGEDSSEEK [CHGB] | 5.622 ± 0.029 | 5.66 ± 0.21 | – | –
83 | ITCLTCQGTGYIPTEQVNELVALI [TMEM106C] | 2.17 ± 0.3 | 2.2 ± 0.27 | – | –
84 | DQEAVCLICAISHTHRAHTVVPLD [TRIM39] | 2.22 ± 0.21 | 2.19 ± 0.35 | – | –
85 | GPESPPPPYSRLSPRDEYKPLDLS [SMAD6] | 4.67 ± 0.15 | 4.78 ± 0.2 | – | –
86 | ECAKAFSRSAILIQHRRTHTDSKY [ZNF396] | 2.55 ± 0.21 | 2.67 ± 0.21 | – | –
87 | YDQQIWEKSIEQTQIKGLKNKPKK [PHTF1] | 4.9 ± 0.093 | 5.17 ± 0.083 | – | –
88 | ENRTLQVLRAEHRGFQEENKALWE [CBY2] | 4.37 ± 0.37 | 4.38 ± 0.17 | – | –
89 | SSELTDSLRTLKPEGNILRDRFKS [NOP53] | 4.42 ± 0.22 | 4.49 ± 0.14 | – | –
